Source: PMC9753469, “Structure and functional mapping of the KRAB‐KAP1 repressor complex” (The EMBO Journal, 2022)
One block for each binder: values may come before it.

Target: T1, KAP1 RBCC (wild type), SPR analyte (human (by the printed UniProt entry), UniProt Q13263 50-413)
T1 construct: KAP1 (TRIM28) RBCC motif; probably as in Stoll et al, 2019; also called WT KAP1 RBCC; wild-type KAP1; source: E. coli BL21(DE3)
Assay: SPR; Biacore T200, CM5 chip; MBP-KRAB immobilised (about 300 RU ZNF93 WT, 600 RU E35R); KAP1 RBCC flowed, 1:2 dilution series from 40 μM; 20 mM HEPES pH 8.0, 0.5 M NaCl, 0.5 mM TCEP, 20°C; biphasic kinetic model
Conditions: both partners purified

T1 sequence (Q13263 50-413): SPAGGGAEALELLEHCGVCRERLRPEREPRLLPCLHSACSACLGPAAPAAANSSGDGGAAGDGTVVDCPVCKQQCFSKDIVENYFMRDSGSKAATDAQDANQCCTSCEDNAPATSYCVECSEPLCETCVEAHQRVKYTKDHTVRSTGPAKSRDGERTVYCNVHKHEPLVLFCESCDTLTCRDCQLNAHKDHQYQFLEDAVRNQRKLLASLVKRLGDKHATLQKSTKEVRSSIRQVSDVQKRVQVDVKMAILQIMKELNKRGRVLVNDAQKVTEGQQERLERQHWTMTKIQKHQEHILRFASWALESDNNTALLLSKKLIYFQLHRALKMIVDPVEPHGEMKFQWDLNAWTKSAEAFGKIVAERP

- Kd: 7.5 nM
B1: MBP-KRAB (ZNF93 KRAB, wild type) (domain or fragment)
chain: not shown
notes: ZNF93, human, residues 2-71 (KRAB domain); The purification of MBP-KRAB alone is not described; also called ZNF93 WT; source: E. coli BL21(DE3); not shown: MBP, N-terminal, kept

- Kd: 198 nM
B2: MBP-KRAB (ZNF93 KRAB E35R) (domain or fragment)
chain: not shown
notes: ZNF93, human, residues 2-71 (KRAB domain), E35R; also called ZNF93 E35R; source: E. coli BL21(DE3); not shown: MBP, N-terminal, kept
